# Where a chain is given by its changes, count along the chain named. Names may count otherwise. “Also recorded” adds a separate entry of the source. Where two headings read alike, the source gives them in different places.
# B1: A426D mutant L1Fc chimera (Fc fusion, UniProt P32004 20-1120, looked up)
# chain: IQIPEEYEGHHVMEPPVITEQSPRRLVVFPTDDISLKCEASGKPEVQFRWTRDGVHFKPKEELGVTVYQSPHSGSFTITGNNSNFAQRFQGIYRCFASNKLGTAMSHEIRLMAEGAPKWPKETVKPVEVEEGESVVLPCNPPPSAEPLRIYWMNSKILHIKQDERVTMGQNGNLYFANVLTSDNHSDYICHAHFPGTRTIIQKEPIDLRVKATNSMIDRKPRLLFPTNSSSHLVALQGQPLVLECIAEGFPTPTIKWLRPSGPMPADRVTYQNHNKTLQLLKVGEEDDGEYRCLAENSLGSARHAYYVTVEAAPYWLHKPQSHLYGPGETARLDCQVQGRPQPEVTWRINGIPVEELAKDQKYRIQRGALILSNVQPSDTMVTQCEARNRHGLLLANAYIYVVQLPDKILTADNQTYMAVQGSTAYLLCKAFGAPVPSVQWLDEDGTTVLQDERFFPYANGTLGIRDLQANDTGRYFCLAANDQNNVTIMANLKVKDATQITQGPRSTIEKKGSRVTFTCQASFDPSLQPSITWRGDGRDLQELGDSDKYFIEDGRLVIHSLDYSDQGNYSCVASTELDVVESRAQLLVVGSPGPVPRLVLSDLHLLTQSQVRVSWSPAEDHNAPIEKYDIEFEDKEMAPEKWYSLGKVPGNQTSTTLKLSPYVHYTFRVTAINKYGPGEPSPVSETVVTPEAAPEKNPVDVKGEGNETTNMVITWKPLRWMDWNAPQVQYRVQWRPQGTRGPWQEQIVSDPFLVVSNTSTFVPYEIKVQAVNSQGKGPEPQVTIGYSGEDYPQAIPELEGIEILNSSAVLVKWRPVDLAQVKGHLRGYNVTYWREGSQRKHSKRHIHKDHVVVPANTTSVILSGLRPYSSYHLEVQAFNGRGSGPASEFTFSTPEGVPGHPEALHLECQSNTSLLLRWQPPLSHNGVLTGYVLSYHPLDEGGKGQLSFNLRDPELRTHNLTDLSPHLRYRFQLQATTKEGPGEAIVREGGTMALSGISDFGNISATAGENYSVVSWVPKEGQCNFRFHILFKALGEEKGGASLSPQYVSYNQSSYTQWDLQPDTDYEIHLFKERMFRHQMAVKTNGTGRVRLPPAGFATE
# notes: not shown: immunoglobulin Fc, human
# B2: H210Q mutant L1Fc chimera (Fc fusion, UniProt P32004 20-1120, looked up)
# chain: B1 chain with H191Q, D407A
# notes: as for B1
# B3: L120V: L1Fc chimera with missense mutation L120V in Ig domain 1 (protein)
# chain: B1 chain with L101V, D407A
# modifications: left off: a dimerising Fc or GST
# B4: G121S: L1Fc chimera with missense mutation G121S in Ig domain 1 (protein)
# chain: B1 chain with G102S, D407A
# modifications: left off: a dimerising Fc or GST
# What was measured:
# [1] = molecular target: T1, wild-type L1Fc chimeric protein (human, UniProt P32004 20-1120); experiment: two-color FACS bead aggregation, mutant L1Fc beads with wild-type L1Fc beads, mixed aggregates at 30 min
# T1 construct: Produced in COS-7 cells, purified on protein A-Sepharose; in the two-color assay it was held on anti-human IgG coated beads; also called soluble L1; wt; not shown: immunoglobulin Fc, human (cross-linked with anti-human Fc antibodies)
# full length human L1 = molecular target: T2, full length human L1 (Homo sapiens, UniProt P32004); experiment: Binding of L1Fc chimeras to COS cells expressing wild-type L1 (immunofluorescence)
# T2 construct: transiently transfected with expression vectors encoding full length human L1; expressed in transfected cells; host or cells: COS7
# Procedure: (§1) The mutant L1Fc chimeras were produced and purified as described previously (De Angelis et al., 1999). Briefly, COS-7 cells were transiently transfected with 10 μg DNA per 150 mm culture dish, the soluble Fc chimeric protein was allowed to accumulate in the media for 6 days and was recovered and purified by protein A-Sepharose affinity chromatography. In the binding experiments, L1Fcs were cross-linked to anti-human Fc antibodies (50 μg/ml, Jackson Immunoresearch) for 1 hr at 37° C. Binding detection to NP-1 requested concentrations of L1Fcs 10 folds higher than L1. Antibody conjugated L1-Fc protein was then incubated with monolayers of COS7 cells transiently transfected with expression vectors encoding full length human L1 or myc-tagged NP-1 where the cytoplasmic domain is deleted (gift of J. Raper, 2000 and Renzi et al., 1999). Following incubation, the cells were fixed with 4% PFA, and processed for double-immunofluorescence detection. NP-1 was detected using a mouse anti-c myc antibody (clone 9E10, Sigma) and L1 using a rat monoclonal anti-L1 antibody. Secondary antibody anti-c-myc (Texas-red conjugated anti-mouse antibodies) was used to detect NP-1, anti-L1 (Texas red conjugated anti-rat antibodies) to detect L1, and anti-Fc (FITC conjugated anti-rabbit antibodies) to detect bound L1Fc chimeras. After secondary antibody incubation, the cells were washed with PBS and mounted in Mowiol (Calbiochem).
# Thus, Ig CAMs F3 and TAG-1 (the rodent homologue of axonin-1) ate unlikely to be axonal receptors for L1Fc in the reversion process. […] In the present study however, mutated L1Fc proteins were required to interact with wild-type L1 expressed on growth cones. To formally exclude a role for homophilic binding of L1 in the initiation of the reversion process, it was therefore necessary to examine whether homophilic binding of the mutated L1Fc chimeras to wild-type L1 was also disrupted. Mutated L1Fcs were therefore incubated with COS7 cells transfected with full-length wild-type L1 cDNA and binding was assessed by immunofluorescence. In parallel, homophilic binding of mutant/mutant and mutant/wild-type L1Fcs was compared in a two-color FACS aggregation assay, allowing a quantitative assessment to be made (see Methods). […] Similarly, in the two color FACS assay homophilic binding was restored to 74.4% and 90.5% of wild-type levels for A426D and H210Q respectively (FIG. 2B). […] This mutation however still promoted the L1 Fc induced switching of Sema3A repulsion to attraction in the co-culture assay. Thus, the ability of L1Fc to switch Sema3A repulsion is not dependent on homophilic binding. Consequently, the trans interaction of L1Fc with L1 in the receptor complex is not required for the change in growth cone responsiveness to Sema3A.
# NP-1 = experiment: Binding of L1Fc chimeras to NP-1 expressing COS7 cells (immunofluorescence)
# Procedure: as §1
# Next, we examined the ability of the mutant L1 Fc chimeras to bind NP-1. COS7 cells were transfected with a vector encoding the extracellular and transmembrane domains of NP-1 fused to a myc tag (ANP-1, Renzi et al., J. Neurosci., 15:7870-7880, 1999), and incubated with the mutant L1Fc chimeras. Binding was detected by immunofluorescence. […] Binding of L120V, G121S and A426D L1Fcs to NP-1 is illustrated in FIG. 3.
# wild-type L1 = experiment: Two-color FACS aggregation assay (homophilic binding); settings: mixed aggregates at the 30-minute time-point; mutant/wild-type
# Procedure: A two-color aggregation assay was developed, modified from the homophilic binding assay described by De Angelis et al. (1999). For the two-color assay, red and green fluorescent microsphere beads (0.6 um, Duke Scientific Corps.) were coated with anti-human IgG antibody (Fc specific; Sigma, 1-2136). 2.5 μg of wild type (red beads) or mutant (green beads) L1Fc-proteins were conjugated to 10 μl of antibody-coated beads by incubating for 2 hrs at 37° C. Excess unbound protein was removed by washing with PBS/5% FCS. For each mutant, a 1:1 mixture of wild-type L1 and mutant L1 coated beads was prepared, dissaggregated to produce a single bead suspension and allowed to form mixed aggregates at 37° C. with samples removed in duplicate over a 30-minute time course. Samples were diluted 1:5000 into ice cold PBS and the proportion of 2 colour aggregates was assessed using a fluorescence activated cell sorter (Becton Dickenson FACSort). Ten thousand particles were counted per sample and categorised as red only (WT-L1: WT-L1), green only (Mutant L1: Mutant L1) or mixed aggregates. Every mutant protein was assayed at least 3 separate times and standardised to a wild-type control conducted in parallel.
# F3, axonin-1 and TAX-1 = settings: F3, axonin-1 (and TAX-1 where stated); cited from earlier work
# [2] = system: cortical axons repelled by Sema3A secreted from the ventral spinal cord; experiment: Co-culture of cortical slices and ventral spinal cord explants (axon guidance response to Sema3A); format: cell-based, mice; settings: for switching of Sema3A repulsion to attraction by L1Fc chimera: chimera 3 μg/ml in culture medium
# Procedure: Blocks of cortex were dissected from P0 (postnatal day 0) to P2 mice and cut into 250 μm thick slices with a McIlwain tissue chopper. The ventral part of the cervical spinal cord was dissected and cut into 250 μm thick slices. Co-culture of cortical slices and ventral spinal cord explants were performed in a three-dimensional plasma clot, as described previously (Castellani et al., 2000). Cortical slices were oriented in the plasma clot as indicated in FIG. 1B to give to axons equivalent chances to be deflected away or towards the spinal cord explant. Purified wild-type or mutant L1Fc chimeras were added to the culture medium (3 μg/ml). Inhibitors of the guanylyl cyclase (ODQ, 10^−5 M, Sigma) and NOS (7NI, […], Sigma) were added to the culture medium, either alone or with wild-type L1Fc (3 μg/ml). After one or two days in vitro (DIV), the cultures were fixed with 4% paraformaldehyde (PFA) and analyzed by phase contrast microscopy (Axiovert 35-M, Zeiss). A qualitative guidance index was attributed to the co-cultures, to assess the degree of repulsive (negative values) or attractive (positive values) effects (Castellani et al., 2000). The index ranged from −2 (when most fibers grew away from the spinal cord explant) to +2 (when most fibers grew towards the explant), with intermediate situations (index of −1 and +1 for moderate guidance effects). An index of zero was attributed to the cultures showing no preferential growth. Quantitative analysis of axon length and number of axons growing from cortical slices was performed as described previously (Castellani et al., 2000). A proximal and a distal region, each of them covering a 600 μm-piece of cortical tissue were determined for each culture. All fibers extending from these two regions were counted and the length of the three longest fibers was measured, using computer analysis software (Visiolab 2000, Biocom). Immunofluorescence labeling of axons was performed using the mouse anti-phosphorylated neurofilament antibody SMI31 (Stemberger and Meyer Inc.), and Texas red-conjugated secondary anti-mouse antibody (see result obtained for number of axons and axonal length in the following tables 1 and 2).
# It has been previously developed an assay system using explants of ventral spinal cord co-cultured with cortical axons in order to determine the factors involved in axonal repulsion and attraction (Castellani et al., 2000). Using this system we have shown that Sema3A secreted from the ventral spinal cord repels cortical axons. In the presence of soluble wild-type L1Fc chimeric protein however, repulsion is switched to attraction (Castellani et al., […]). In the present study, we aimed to identify the L1 interactions underlying the switching process. As Ig domains have been implicated in binding of Ig CAMs to many of their ligands (Brümmendorf and Rathjen, 1996) we hypothesized that they would also be required for L1 Fc-mediated switching. […] L1 Fc chimeras containing pathological missense mutations affecting specific Ig domains (De Angelis et al., 1999 and FIGS. 1A, 1B) were assessed for their ability to reverse Sema3A repulsion to attraction.
# L1 = settings: mutant bound to itself; cited from earlier work
# T2 sequence (P32004 20-1257): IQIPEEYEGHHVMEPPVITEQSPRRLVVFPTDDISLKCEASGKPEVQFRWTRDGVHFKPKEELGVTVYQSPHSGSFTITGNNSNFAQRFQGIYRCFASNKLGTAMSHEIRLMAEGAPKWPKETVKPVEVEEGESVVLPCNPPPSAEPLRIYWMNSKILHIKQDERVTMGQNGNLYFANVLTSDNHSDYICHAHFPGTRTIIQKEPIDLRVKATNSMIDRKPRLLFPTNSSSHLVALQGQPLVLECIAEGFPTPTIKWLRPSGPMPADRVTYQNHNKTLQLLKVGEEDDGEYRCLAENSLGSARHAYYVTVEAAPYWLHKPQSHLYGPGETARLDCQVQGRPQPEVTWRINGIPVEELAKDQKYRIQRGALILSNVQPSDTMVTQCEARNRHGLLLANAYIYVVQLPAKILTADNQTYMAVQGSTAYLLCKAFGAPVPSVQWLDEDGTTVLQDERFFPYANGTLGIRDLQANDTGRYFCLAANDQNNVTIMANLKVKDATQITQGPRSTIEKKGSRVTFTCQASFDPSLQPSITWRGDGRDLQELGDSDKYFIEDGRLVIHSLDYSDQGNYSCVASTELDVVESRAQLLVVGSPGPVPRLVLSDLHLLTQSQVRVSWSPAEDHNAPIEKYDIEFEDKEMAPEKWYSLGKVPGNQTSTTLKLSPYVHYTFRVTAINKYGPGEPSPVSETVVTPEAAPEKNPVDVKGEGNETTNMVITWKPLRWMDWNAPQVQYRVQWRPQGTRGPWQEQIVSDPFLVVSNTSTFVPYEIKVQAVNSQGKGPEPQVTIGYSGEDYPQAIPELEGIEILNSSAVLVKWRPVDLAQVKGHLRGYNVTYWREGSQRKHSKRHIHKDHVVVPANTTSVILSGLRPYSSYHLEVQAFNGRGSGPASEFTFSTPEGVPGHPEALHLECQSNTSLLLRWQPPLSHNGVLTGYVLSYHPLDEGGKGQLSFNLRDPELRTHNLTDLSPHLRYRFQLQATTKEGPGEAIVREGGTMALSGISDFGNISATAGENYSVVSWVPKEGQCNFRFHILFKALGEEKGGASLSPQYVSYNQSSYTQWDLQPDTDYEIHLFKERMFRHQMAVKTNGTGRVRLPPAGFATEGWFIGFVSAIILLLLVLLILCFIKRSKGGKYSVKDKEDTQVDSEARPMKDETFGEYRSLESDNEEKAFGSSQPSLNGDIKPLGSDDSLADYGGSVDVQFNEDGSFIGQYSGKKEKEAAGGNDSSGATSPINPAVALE
# Chain of wild-type L1 (P32004 with tags, fused parts or gaps limits assumed): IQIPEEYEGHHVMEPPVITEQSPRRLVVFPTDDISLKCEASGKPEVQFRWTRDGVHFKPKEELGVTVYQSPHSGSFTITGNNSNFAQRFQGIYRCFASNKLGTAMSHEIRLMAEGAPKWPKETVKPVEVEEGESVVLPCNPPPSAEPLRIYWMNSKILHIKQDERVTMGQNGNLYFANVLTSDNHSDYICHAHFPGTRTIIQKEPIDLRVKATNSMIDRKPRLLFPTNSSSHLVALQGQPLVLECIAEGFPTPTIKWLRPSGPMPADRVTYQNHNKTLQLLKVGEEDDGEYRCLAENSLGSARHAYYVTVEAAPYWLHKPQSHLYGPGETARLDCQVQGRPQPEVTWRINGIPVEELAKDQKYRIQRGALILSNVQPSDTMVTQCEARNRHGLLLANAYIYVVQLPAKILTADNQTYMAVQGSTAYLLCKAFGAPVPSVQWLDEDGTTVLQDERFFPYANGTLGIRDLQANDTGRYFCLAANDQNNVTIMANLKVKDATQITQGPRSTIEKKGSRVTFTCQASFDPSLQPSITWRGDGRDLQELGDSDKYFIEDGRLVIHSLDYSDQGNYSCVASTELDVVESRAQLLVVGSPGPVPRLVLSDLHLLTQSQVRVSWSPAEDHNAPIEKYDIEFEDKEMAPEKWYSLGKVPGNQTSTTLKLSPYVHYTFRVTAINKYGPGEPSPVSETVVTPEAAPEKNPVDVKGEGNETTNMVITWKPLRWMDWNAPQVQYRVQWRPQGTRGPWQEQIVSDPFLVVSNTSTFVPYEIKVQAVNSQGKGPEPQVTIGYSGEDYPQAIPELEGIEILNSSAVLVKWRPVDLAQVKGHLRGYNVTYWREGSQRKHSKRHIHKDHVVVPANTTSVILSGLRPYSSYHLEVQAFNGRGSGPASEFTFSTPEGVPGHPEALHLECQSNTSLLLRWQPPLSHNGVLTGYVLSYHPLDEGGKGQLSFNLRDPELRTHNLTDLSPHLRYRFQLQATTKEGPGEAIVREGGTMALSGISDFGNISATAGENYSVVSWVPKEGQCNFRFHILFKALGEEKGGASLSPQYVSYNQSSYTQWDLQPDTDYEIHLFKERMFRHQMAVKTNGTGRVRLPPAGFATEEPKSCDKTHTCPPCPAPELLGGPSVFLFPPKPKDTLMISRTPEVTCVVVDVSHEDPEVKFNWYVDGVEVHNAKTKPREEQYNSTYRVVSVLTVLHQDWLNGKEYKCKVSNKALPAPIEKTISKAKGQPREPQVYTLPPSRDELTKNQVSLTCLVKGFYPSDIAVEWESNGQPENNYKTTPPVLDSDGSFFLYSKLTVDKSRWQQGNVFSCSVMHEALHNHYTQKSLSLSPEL
molecule,measurement,setting,value
B1,"homophilic binding, percent of wild-type levels",[1],74.4 % of wild-type levels
B2,"homophilic binding, percent of wild-type levels",[1],90.5 % of wild-type levels
B3,binding to wild-type L1 expressed in COS cells,full length human L1,bound to wild-type L1
same,binding to NP-1 expressing cells,NP-1,did not
same,binding to NP-1 expressing cells,NP-1; listed as L120V-L1Fc,did not bind NP-1
same,"homophilic binding to wild-type L1, percent of wild-type levels",wild-type L1,100%
same,effect of mutation on heterophilic binding,"F3, axonin-1 and TAX-1",does not affect
same,switching of Sema3A repulsion to attraction by L1Fc chimera,[2],unable to switch the repulsive activity of Sema3A to attraction; also recorded: abrogated the reversal of Sema3A repulsion to attraction; also recorded: failed to reverse Sema3A effect
same,guidance index,"[2]; qualitative index from −2 (repulsion) to +2 (attraction), L1Fc chimeras 3 μg/ml, ODQ 10^−5M",−1.3
same,effect of mutation on homophilic binding,L1,does not affect
B4,binding to wild-type L1 expressed in COS cells,full length human L1,did not; also recorded: almost abolished homophilic binding to wild-type L1
same,binding to NP-1 expressing cells,NP-1,bound to NP-1 expressing cells
same,"homophilic binding to wild-type L1, percent of wild-type levels",wild-type L1,extremely low; also recorded: almost abolished homophilic binding to wild-type L1
same,effect of mutation on heterophilic binding,"F3, axonin-1 and TAX-1",reduce
same,switching of Sema3A repulsion to attraction by L1Fc chimera,[2],able to reverse Sema3A repulsion to attraction; also recorded: efficiently induce switching of Sema3A repulsion to attraction; also recorded: switched Sema3A from repulsion to attraction to the same extent as wild type L1Fc
same,effect of mutation on homophilic binding,L1,reduce homophilic binding

# From US20060058504A1, “Peptides capable of inducing attraction to the axonal growth and their use for treating neurodegenerative diseases” (Centre National de la Recherche Scientific (CNRS), priority 2002, published 2006)
